Reference: the domain aggregation screens of Martell et al. (2025)

Experiment: soluble fraction after stress (log2 fold change); higher = more stays soluble; pooled small domains, quantitative proteomics
Conditions: stress: pH 4
In short: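 Following acid stress at pH 4, the amount of each small protein domain still soluble was measured in pooled custom libraries by high-throughput quantitative proteomics. Its fold change, on a log2 scale, is higher when more of the domain stayed soluble. This fold change is taken as a measure of aggregation propensity.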

Sequence	soluble fraction (log2)
HMDNQYGVYSDEKNNVEIHWKRIDHPSVAKDHLDIEAYQNGKRVDINNQQADHYRYLINQEMNE	0.226
HMQVPVNVSMEILDWVIAHIKIDALPNQIREYLNLWVNGEKEPTFNQVEKVSKATGIPLGYFFLQTPPIED	-1.33
HMGGEEPYGSGSLRLAAGAVVPSGYTIKGNEDSMLYHTTESPWYKQTIAEVWFNAESAAQRAGFTRWDAKD	-0.672
HMDVKQSAAGVAGRIRFELNRTLTGQGHEKFTSASQAIGPRPAAELARRLFNSGSVVGVHVFANIVTVDLL	0.088
HMQTPPGRYRHYKGGLYEVIATARHSETLEPMTVYRALYGEQGLWVRPAAMFAEDITLEGVRQPRFARI	-1.27
HMTSRIHDYWTSPGQPGYAKIGWGTAGDFRRAKALIGEKIAANSPEDMRYLNQIIAQWHFDALGYWPGDH	-1.08
HMSKEKQILQLLQHGYSQRRIADTLSVSRNTVAKVAKAAIEHPVSSDSLDSIDELELHQKLFPEEVLI	-0.184
HMIPDLPAIGENLYRERKRQQLSMAELAAASGISKAMLSQIEADKVNPTIATLWKIAHALHVDLESLISGG	-0.0815
HMASDQGAGALREVSAFFEKHGRVPDPDAVDHDEMRLGSIWASIKSAPTDQMRLEDRFGLLD	-0.613
HMGDEVAVTEILVKVGDTVEADQSLLTVEGDKASMEVPAPFAGVVKAIQVQLGDKVVTGSPIMLFEV	-0.88
HMIHIGAQEALGEFQDEEGNLTASKKEVVAALVKKSKEVSFPTSYEYEVAARMAADEYNDAGQRMA	-0.079
HMDNFDVVLTSPGDQKVQVIKAVRSITGLGLKEAKDLVDGAPNTVKEGVKKLDAEEMLKQLTEAGATGEL	-0.366
HMPVEQVWHIAEAGKTKGPFSRASMGRMSADGALTRDTLVWTAGQDGWKKAADVTALATLFT	-0.0499
HMETFEKIKELAKKRGKALGQVEEDLGYGRNTLYKIKNSTPNAERIAEIANYFNVSTDYLLGRTDNPTIAK	0.104
HMVVSDKIAFSSFLKSVEDGRVVEVEITGNDIRGILSDGTVFNTYAPNDPNLVEKLTSKGVNITALPKE	0.0738
HMGEAYVVPNVKNKTLGEAQLALHNQKLEGLVVDSSYVKGLPDGMILDQNPAGGARVKEGRTIYLTITTS	-0.146
HMRRKDIEFTNTMLEELYRHNSKWYDAVVRAYALEIPQKQIAEEMGIRLEAFQSMLFRAKKWIKTKYEADY	-0.432
HMIEDMQQWIRQIREIVSNRLDLTRNISDDEIREVISDIVMEQSRQQYMSLNEKKTLMEGVFNSMR	-0.977
HMSIQQEATGNRIRELLLNNGYTVKDIQEVMGFENPQAVYKWLSGKSLPNLDNLLILSKVLHTSIEDILV	-1.09
HMIYGNGVTDLKDLANGATIIIPADDSNETRALFLLQQEGLIKLPDDADAAKGVSTLDIVDGGGWVTSM	-0.381
HMNQTGQYENAAKRFNQLITIDSSDKRAYLQLGISNYNLGNKEKADSLFNIIRNSKDKLLIEELDNFLT	-0.169
HMQPAALEAQVIKLVRLHAPIKARQLATILANEFGQHVDRSTVNSLLYQLRAQGKVAQNAAYQWSLT	-0.0984
HMAGVSVTSLTTFWRLAADTPDTPSGADDPSGWSRTEPSIPDGYEGKLYRTIRTIMSDGTATWTSPD	0.0531
HMSPIQLKYNEYLIYIDEGKINTAEIHGNKITGKLKEGSEYVVTIYPELIASITEKLAENNVQTQLIQ	-0.466
HMVEKNALSEEIEGYVNKYGKDRSSLMPVLQAIQRKHSYINDFAQQEVARLLDIHPVEVFSVISFYSFLH	-1

Sequence	soluble fraction (log2)
HMVTEKPLYRDELMDHDTVWVEPISMDSHLRMELRGWYHVKNRFVENEVGQRFYFDFYDIKWLAFTNGP	≥ 0.43
HMSSWEDNFSYWIRNVAETLDKDLLNVANSKLEKIIINAALDQTNGKKNEAAILLGLGRNTLAKKIKELG	-0.929
HMSDPELAIPRVVGLSGNDAQAALVKAGFSAVTVVTVKNSEVTSEQVTHVVPAEGAKAKASTPVTVVVSSS	0.15
HMGRLTTKIVLYDRIENIVPERRKELVADIEKRIGVKVEVLEIGHVDFVRDAAWLKVSYYLAPGE	-1.35
HMKEPFETMPDVMDAKQIAEALQISKAGAYNLLNSPDFPTLRIGGRKLVMKNELVEWLKSHTNRK	0.126
HMQLSASQQQILNHAAVNTDGKLVWFPETLKGGARKKVLDSLFSRALITTDGTHWFVAAEGYEALGIP	-0.0982
HMSDTMTVTNVKYAIYLRSTPSEASDANIIMEIPVGSKVTYLDTPNNTFYKISYGGTVGYSKQIYLTF	-0.482
HMIIDPQIRTLWTSQIIDILKSNPKRSIRSILELYPSNKESWVLIILQELIGEEKIIRDLDYLYFNK	-1.26
HMKEATTSPLDGIPGIGSKRKKALLSHFGSARSVARADIPDLMRVDGISRQVAETIYGWFHN	0.311
HMKTKKYKGVYKDSKGKIYFQIELGVDPITGKRIQKKGRKNQQGLPFNSFKEAYEEILRLKHEFVNSTIN	0.00285
HMTSLTDDELSVVMLVREREISFDEITSETGFDAARLNSVLTMLKIKGIIDETTGKHYRISGGA	-0.492
HMSNNILEISSNKKNMKIQENKNLVESYYSKTENLYSFKLVFKNKRDLDQFLKEVYEDDSTINYKTSS	-0.524
HMTEKIEWYKEVLDLEPNSKIFFPLAKMLEKEGELEEARRVLAEGVSRHEEFLEARLFYISVLSRL	-1.05
HMKGVSFEEIERAVRTAQNPEADETAQQHAGMVFSRMEGNELFDKLVQSSSTIGKKITGLMDYYL	-0.378
HMNSVLPQEVKSSLNDFFTKYAPGSIAQKLINHASFTGGKVVVTGVELTQTQADDLKKAFKDKFF	0.22
HMPRNMTFAIRGEYITLDALLKAVGAADSGAQAKHRIAEGEVTVDGVVETRKTRKLRGGETVVVDDLAVVL	-1.4
HMEQVTMSNFLDKWGTSTKSPNAWYTSLSPMQKAEAKLLKEESGLTWNKWYEKNIYVGDGTN	-0.264
HMPEMHIYTKEGKIHITHIDENEEIKIYNPLGQIIYTGSPQDIPVLEGKGLYIIYIGKSAVEVLES	-0.624
HMRFNIGNVIEHYKLNTEDLAKVLFPTVKYPKQAFDRVLKGEANLDVIQLERLANHIGVLVTDLF	-0.659
HMEKVTAPMPGVINSIVKNVGDTVKRGDVVLILEAMKMENEIVAPKEGKIASINVAKGASVNAGDVLFSI	0.197
HMDYKLDVNFPEMYLEQIPAEKRAALIQILEQDPRPSYQKDPVRIYGMSYAGMEIHFRVDKETLYVTEVER	-0.0453
HMHTGLTNYEYKQIKSSLLKILTQSESMRLGELVDKVDQFESEKVTTVIRFLVGNEELMLFDDTLTLKKQL	-0.232
HMVSLRQQVYDYLRSQMNQGELRPGSAINLGEMSSRFGISRTPLREALLQLETEGFVTIYPRKGIIVN	-0.243
HMRMTLKNKVEDIVHILRKDKQTSLSAILGDNTDRIQTIVVFLAILELVKQHLIKTDQNANFGDINLFPED	0.134
HMVPAMGSLTLIKGGVNLRNAPGGLTIAQLDRGLVLSYTKFVQKDGYTWYLVNSPKGTGYVRSDVVQLGS	-0.3

Sequence	soluble fraction (log2)
HMDAINITTYKGQITLTGTKTGTLVGIYNTAGMLVKSMMSKGEKLYFDNLPSGVYIIKVGEEEPRKVQVI	≥ 0.43
HMQPLRQGDFVTSEVVKVQDGTAVLRTAQGTLLSASLTGNLGLLPGDRVETVVVEASPGRFVLRVLDIIR	-0.266
HMDNITIYSSNGKIYVNAIGGEKIELFNITGQKVAEKVAVSGINVLDAVYDITLVKVGSKVVKVV	-1.41
HMDTLHGRILEEFSRKIVDGTWPPGFSLPKETELADQYGVSRMTMNKVLTRLASDGFVIRRKRSGTVVAQP	-0.176
HMREEFIGVLDGKVAIFHGRPERKGPLKEVTAIEVDKLPRQEQADLEKGLVIRTDKEKLQLMEGLAALLD	-0.171
HMSSASETQYELALQAMRDGDNDAALRSLSTALASGFSDWQRIDEEPLLAALANDVRFQVLRSRWK	-0.92
HMLDLPVKTINGKQYYYYTVKKGDTVYSLITRFGITRSDLVESNPAAADVLKTGDTLYFAVDKFG	0.0813
HMDEARLAVASNLIRLRTDAGMTQAELGEKLNYSDKTISKWERAEAIPDAFVLKQIGELFHVSVDFLLRTH	0.1
HMENRLREVRDEIATRHGILPTVFINDRVLMNIHSKKPKDVSQLWQVDGISDEFIMKYGPEFIAEYKKKAK	-0.59
HMTVSGNIAGDYKDYLPQKTDVINGMTVTYRMVDDAVYLASWKHAGQNHVFLFNDPVSVERAREMI	-0.965
HMSLSEGVSADVVADVQARLMELGYMDEDDPDGNFSESTRIAVEHFQQQAGLPVTGTVDKATLDALNSPD	-0.231
HMAVTGRVDLRIKPWGYVSVDGAAKVSSPPTMQLKLAPGRHEIEITNPAGAAVTKTVDVIAGKSVTVQHN	0.19
HMSVLSVASKNQAINPGQVVALLKDGIKLNDDGRVEILDNNNNIRYNEKGNLLSIEERVKEFLDANPHFRQ	-0.134
HMNQYALTDREKNVLGLLVDGLSYKMIADKENISFHTVNAHVRKIYEKLHVHSLAEAVSKALKENL	0.056
HMADTIEVVVQVNGKVRAKISTSPEVFADSTKLQELALADANVQKFIAGQTIRKVIIPKGTKLLNIV	-0.55
HMKKKVDSENLLLDILKQMQPQASTNVLRKMLTNQRISVDDQIIHRAKHVVQEGQTVEIHPKP	0.139
HMTALSIGTVVRFTGDRHYISSTGDTGYPASPGLAKITSINPGSKHPYHLIHIDNTSNVYGWVNKQDIIT	≥ 0.43
HMGAKVFTVPNLIGKYAIEAGIILKKEGLSEGEVKEENSDKYAAGQIIDQYPAADSPAKENDKINYVVSIG	-0.0221
HMFDEVKDAARRLAALLDQAGGTLTLNDKSAPEEVAALTGMSKKVFKRALGHLMSRSEVVVADGRITKKD	-0.196
HMAAKADAVKKAIAAIGKVDASEDSKAKVEAARKAYAALTEDQKKLVEASQLKLLTEAEAAYQQAVEESKK	-0.0736
HMAWAVDVGVVGLFPGKAVLVIDGGAPRTVPVGANVGGVRLLAVDQGSATVEIGGKRQRLAIGQHAH	0.22
HMDHKSALQELLAPRGLQPSYRLVEEAGPAHARVFTSEVSVDGVARGSGTGTTIKMSEQAAAREALASLG	0.318
HMEHQLLHMEKTIFEEIADDYPQLNHTKIRNVLAAFLFTNDDVFKRIADLSGGERGRVSLAKLMLSDA	-0.816
HMTMPDFGYMRVSYAEARRQLQAIGISVSTIEKVEDPSHTSATGDMVISQYPAAGSKIEGTVTLYVSVAS	0.332
HMSASSTAPGSVTLRGAILTAWTAAGGERSKMGLPVGYEVRQADGTVTQTFEKGRISVSPTGTATI	-0.0391
